Source: US20090105152A1
Numbered stars: 1 amine (or outer) side, 2 acyl side, 3 side chain; on linkers, the order of the positions; unused ones are H or OH. Square brackets hold non-standard residues; d marks the D form. Asp(NHcPr) = N-omega-cyclopropylasparagine, O=C(C[C@H](N[*:1])C(=O)[*:2])NC1CC1; Asp(NHBzl) = N-omega-benzylasparagine, O=C(C[C@H](N[*:1])C(=O)[*:2])NCc1ccccc1; Phe(3-Me) = Cc1cccc(C[C@H](N)C(=O)O)c1; Phe(2-Me) = Cc1ccccc1C[C@H](N)C(=O)O; Arg(Me) = CNC(=N)NCCC[C@H](N)C(=O)O; Ala(cPr) = N[C@@H](CC1CC1)C(=O)O; Hyp = O=C(O)[C@@H]1C[C@@H](O)CN1; αMeF = C[C@](N)(Cc1ccccc1)C(=O)O; Cit = NC(=O)NCCC[C@H](N)C(=O)O; Dab = NCC[C@H](N)C(=O)O; Dap = NC[C@H](N)C(=O)O; azaGly = NNC(=O)O

B1: des(1)-Ac-[D-Tyr2,Hyp3,His4,Thr5,AzaGly7,Arg(Me)9,Trp10]MS10 (peptide)
peptide: Ac-[dY][Hyp]HTF[azaGly]L[Arg(Me)]W-NH2
SMILES: CNC(=N)NCCC[C@H](NC(=O)[C@H](CC(C)C)NC(=O)NNC(=O)[C@H](Cc1ccccc1)NC(=O)[C@@H](NC(=O)[C@H](Cc1c[nH]cn1)NC(=O)[C@@H]1C[C@@H](O)CN1C(=O)[C@@H](Cc1ccc(O)cc1)NC(C)=O)[C@@H](C)O)C(=O)N[C@@H](Cc1c[nH]c2ccccc12)C(N)=O
B2: des(1)-Ac-[D-Tyr2,Hyp3,Thr5,Phe(2Me)6,AzaGly7,Arg(Me)9,Trp10]MS10 (peptide)
peptide: Ac-[dY][Hyp]NT[Phe(2-Me)][azaGly]L[Arg(Me)]W-NH2
SMILES: CNC(=N)NCCC[C@H](NC(=O)[C@H](CC(C)C)NC(=O)NNC(=O)[C@H](Cc1ccccc1C)NC(=O)[C@@H](NC(=O)[C@H](CC(N)=O)NC(=O)[C@@H]1C[C@@H](O)CN1C(=O)[C@@H](Cc1ccc(O)cc1)NC(C)=O)[C@@H](C)O)C(=O)N[C@@H](Cc1c[nH]c2ccccc12)C(N)=O
B3: des(1)-Ac-[D-Tyr2,Hyp3,Thr5,AzaGly7,Ala(cPr)8,Arg(Me)9,Trp10]MS10 (peptide)
peptide: Ac-[dY][Hyp]NTF[azaGly][Ala(cPr)][Arg(Me)]W-NH2
SMILES: CNC(=N)NCCC[C@H](NC(=O)[C@H](CC1CC1)NC(=O)NNC(=O)[C@H](Cc1ccccc1)NC(=O)[C@@H](NC(=O)[C@H](CC(N)=O)NC(=O)[C@@H]1C[C@@H](O)CN1C(=O)[C@@H](Cc1ccc(O)cc1)NC(C)=O)[C@@H](C)O)C(=O)N[C@@H](Cc1c[nH]c2ccccc12)C(N)=O
B4: des(1)-Ac-[D-Tyr2,Hyp3,Thr5,αMePhe6,AzaGly7,Arg(Me)9,Trp10]MS10 (peptide)
peptide: Ac-[dY][Hyp]NT[αMeF][azaGly]L[Arg(Me)]W-NH2
SMILES: CNC(=N)NCCC[C@H](NC(=O)[C@H](CC(C)C)NC(=O)NNC(=O)[C@](C)(Cc1ccccc1)NC(=O)[C@@H](NC(=O)[C@H](CC(N)=O)NC(=O)[C@@H]1C[C@@H](O)CN1C(=O)[C@@H](Cc1ccc(O)cc1)NC(C)=O)[C@@H](C)O)C(=O)N[C@@H](Cc1c[nH]c2ccccc12)C(N)=O
B5: des(1)-Ac-[D-Tyr2,Hyp3,Gly4,Thr5,AzaGly7,Arg(Me)9,Trp10]MS10 (peptide)
peptide: Ac-[dY][Hyp]GTF[azaGly]L[Arg(Me)]W-NH2
SMILES: CNC(=N)NCCC[C@H](NC(=O)[C@H](CC(C)C)NC(=O)NNC(=O)[C@H](Cc1ccccc1)NC(=O)[C@@H](NC(=O)CNC(=O)[C@@H]1C[C@@H](O)CN1C(=O)[C@@H](Cc1ccc(O)cc1)NC(C)=O)[C@@H](C)O)C(=O)N[C@@H](Cc1c[nH]c2ccccc12)C(N)=O
B6: des(1)-Ac-[D-Tyr2,Hyp3,D-Asn4,Thr5,AzaGly7,Arg(Me)9,Trp10]MS10 (peptide)
peptide: Ac-[dY][Hyp][dN]TF[azaGly]L[Arg(Me)]W-NH2
B7: des(1)-Ac-[D-Tyr2,D-Trp3,Asp(NHcPr)4,Thr5,AzaGly7,Arg(Me)9,Trp10]MS10 (peptide)
peptide: Ac-[dY][dW][Asp(NHcPr)]TF[azaGly]L[Arg(Me)]W-NH2
SMILES: CNC(=N)NCCC[C@H](NC(=O)[C@H](CC(C)C)NC(=O)NNC(=O)[C@H](Cc1ccccc1)NC(=O)[C@@H](NC(=O)[C@H](CC(=O)NC1CC1)NC(=O)[C@@H](Cc1c[nH]c2ccccc12)NC(=O)[C@@H](Cc1ccc(O)cc1)NC(C)=O)[C@@H](C)O)C(=O)N[C@@H](Cc1c[nH]c2ccccc12)C(N)=O
B8: des(1-5)-4-Ureidobenzoyl-[AzaGly7,Arg(Me)9,Trp10]MS10 (peptide)
peptide: {4‑ureidobenzoyl}-F[azaGly]L[Arg(Me)]W-NH2
B9: des(1)-Ac-[D-Tyr2,Hyp3,Gly5,AzaGly7,Arg(Me)9,Trp10]MS10 (peptide)
peptide: Ac-[dY][Hyp]NGF[azaGly]L[Arg(Me)]W-NH2
SMILES: CNC(=N)NCCC[C@H](NC(=O)[C@H](CC(C)C)NC(=O)NNC(=O)[C@H](Cc1ccccc1)NC(=O)CNC(=O)[C@H](CC(N)=O)NC(=O)[C@@H]1C[C@@H](O)CN1C(=O)[C@@H](Cc1ccc(O)cc1)NC(C)=O)C(=O)N[C@@H](Cc1c[nH]c2ccccc12)C(N)=O
B10: des(1)-Ac-[D-Tyr2,Hyp3,Ala5,AzaGly7,Arg(Me)9,Trp10]MS10 (peptide)
peptide: Ac-[dY][Hyp]NAF[azaGly]L[Arg(Me)]W-NH2
SMILES: CNC(=N)NCCC[C@H](NC(=O)[C@H](CC(C)C)NC(=O)NNC(=O)[C@H](Cc1ccccc1)NC(=O)[C@H](C)NC(=O)[C@H](CC(N)=O)NC(=O)[C@@H]1C[C@@H](O)CN1C(=O)[C@@H](Cc1ccc(O)cc1)NC(C)=O)C(=O)N[C@@H](Cc1c[nH]c2ccccc12)C(N)=O
B11: des(1)-Ac-[D-Tyr2,Hyp3,Dap4,Thr5,AzaGly7,Arg(Me)9,Trp10]MS10 (peptide)
peptide: Ac-[dY][Hyp][Dap]TF[azaGly]L[Arg(Me)]W-NH2
SMILES: CNC(=N)NCCC[C@H](NC(=O)[C@H](CC(C)C)NC(=O)NNC(=O)[C@H](Cc1ccccc1)NC(=O)[C@@H](NC(=O)[C@H](CN)NC(=O)[C@@H]1C[C@@H](O)CN1C(=O)[C@@H](Cc1ccc(O)cc1)NC(C)=O)[C@@H](C)O)C(=O)N[C@@H](Cc1c[nH]c2ccccc12)C(N)=O
B12: des(1)-Ac-[D-Tyr2,Hyp3,Thr5,Phe(3Me)6,AzaGly7,Arg(Me)9,Trp10]MS10 (peptide)
peptide: Ac-[dY][Hyp]NT[Phe(3-Me)][azaGly]L[Arg(Me)]W-NH2
SMILES: CNC(=N)NCCC[C@H](NC(=O)[C@H](CC(C)C)NC(=O)NNC(=O)[C@H](Cc1cccc(C)c1)NC(=O)[C@@H](NC(=O)[C@H](CC(N)=O)NC(=O)[C@@H]1C[C@@H](O)CN1C(=O)[C@@H](Cc1ccc(O)cc1)NC(C)=O)[C@@H](C)O)C(=O)N[C@@H](Cc1c[nH]c2ccccc12)C(N)=O
B13: des(1)-Ac-[D-Tyr2,Hyp3,Hyp5,AzaGly7,Arg(Me)9,Trp10]MS10 (peptide)
peptide: Ac-[dY][Hyp]N[Hyp]F[azaGly]L[Arg(Me)]W-NH2
SMILES: CNC(=N)NCCC[C@H](NC(=O)[C@H](CC(C)C)NC(=O)NNC(=O)[C@H](Cc1ccccc1)NC(=O)[C@@H]1C[C@@H](O)CN1C(=O)[C@H](CC(N)=O)NC(=O)[C@@H]1C[C@@H](O)CN1C(=O)[C@@H](Cc1ccc(O)cc1)NC(C)=O)C(=O)N[C@@H](Cc1c[nH]c2ccccc12)C(N)=O
B14: des(1)-Ac-[D-Tyr2,Hyp3,Cit4,Thr5,AzaGly7,Arg(Me)9,Trp10]MS10 (peptide)
peptide: Ac-[dY][Hyp][Cit]TF[azaGly]L[Arg(Me)]W-NH2
SMILES: CNC(=N)NCCC[C@H](NC(=O)[C@H](CC(C)C)NC(=O)NNC(=O)[C@H](Cc1ccccc1)NC(=O)[C@@H](NC(=O)[C@H](CCCNC(N)=O)NC(=O)[C@@H]1C[C@@H](O)CN1C(=O)[C@@H](Cc1ccc(O)cc1)NC(C)=O)[C@@H](C)O)C(=O)N[C@@H](Cc1c[nH]c2ccccc12)C(N)=O
B15: des(1)-Ac-[D-Tyr2,Hyp3,D-Thr5,AzaGly7,Arg(Me)9,Trp10]MS10 (peptide)
peptide: Ac-[dY][Hyp]N[dT]F[azaGly]L[Arg(Me)]W-NH2
B16: des(1)-Ac-[D-Tyr2,Hyp3,D-Ala5,AzaGly7,Arg(Me)9,Trp10]MS10 (peptide)
peptide: Ac-[dY][Hyp]N[dA]F[azaGly]L[Arg(Me)]W-NH2
SMILES: CNC(=N)NCCC[C@H](NC(=O)[C@H](CC(C)C)NC(=O)NNC(=O)[C@H](Cc1ccccc1)NC(=O)[C@@H](C)NC(=O)[C@H](CC(N)=O)NC(=O)[C@@H]1C[C@@H](O)CN1C(=O)[C@@H](Cc1ccc(O)cc1)NC(C)=O)C(=O)N[C@@H](Cc1c[nH]c2ccccc12)C(N)=O
B17: des(1)-Ac-[D-Tyr2,Hyp3,Dab4,Thr5,AzaGly7,Arg(Me)9,Trp10]MS10 (peptide)
peptide: Ac-[dY][Hyp][Dab]TF[azaGly]L[Arg(Me)]W-NH2
SMILES: CNC(=N)NCCC[C@H](NC(=O)[C@H](CC(C)C)NC(=O)NNC(=O)[C@H](Cc1ccccc1)NC(=O)[C@@H](NC(=O)[C@H](CCN)NC(=O)[C@@H]1C[C@@H](O)CN1C(=O)[C@@H](Cc1ccc(O)cc1)NC(C)=O)[C@@H](C)O)C(=O)N[C@@H](Cc1c[nH]c2ccccc12)C(N)=O
B18: des(1)-Ac-[D-Tyr2,Hyp3,Gln4,Thr5,AzaGly7,Arg(Me)9,Trp10]MS10 (peptide)
peptide: Ac-[dY][Hyp]QTF[azaGly]L[Arg(Me)]W-NH2
SMILES: CNC(=N)NCCC[C@H](NC(=O)[C@H](CC(C)C)NC(=O)NNC(=O)[C@H](Cc1ccccc1)NC(=O)[C@@H](NC(=O)[C@H](CCC(N)=O)NC(=O)[C@@H]1C[C@@H](O)CN1C(=O)[C@@H](Cc1ccc(O)cc1)NC(C)=O)[C@@H](C)O)C(=O)N[C@@H](Cc1c[nH]c2ccccc12)C(N)=O
B19: des(1)-Ac-[D-Tyr2,Hyp3,Arg4,Thr5,AzaGly7,Arg(Me)9,Trp10]MS10 (peptide)
peptide: Ac-[dY][Hyp]RTF[azaGly]L[Arg(Me)]W-NH2
SMILES: CNC(=N)NCCC[C@H](NC(=O)[C@H](CC(C)C)NC(=O)NNC(=O)[C@H](Cc1ccccc1)NC(=O)[C@@H](NC(=O)[C@H](CCCNC(=N)N)NC(=O)[C@@H]1C[C@@H](O)CN1C(=O)[C@@H](Cc1ccc(O)cc1)NC(C)=O)[C@@H](C)O)C(=O)N[C@@H](Cc1c[nH]c2ccccc12)C(N)=O
B20: des(1)-Ac-[D-Tyr2,D-Trp3,Asp(NHBzl)4,Thr5,AzaGly7,Arg(Me)9,Trp10]MS10 (peptide)
peptide: Ac-[dY][dW][Asp(NHBzl)]TF[azaGly]L[Arg(Me)]W-NH2
SMILES: CNC(=N)NCCC[C@H](NC(=O)[C@H](CC(C)C)NC(=O)NNC(=O)[C@H](Cc1ccccc1)NC(=O)[C@@H](NC(=O)[C@H](CC(=O)NCc1ccccc1)NC(=O)[C@@H](Cc1c[nH]c2ccccc12)NC(=O)[C@@H](Cc1ccc(O)cc1)NC(C)=O)[C@@H](C)O)C(=O)N[C@@H](Cc1c[nH]c2ccccc12)C(N)=O

What follows are binders tested against human OT7T175 (metastin receptor) (human) (UniProt Q969F8) (assay: cell-based or functional assay).
Chain of human OT7T175 (metastin receptor) (human) (Q969F8 whole entry L364H): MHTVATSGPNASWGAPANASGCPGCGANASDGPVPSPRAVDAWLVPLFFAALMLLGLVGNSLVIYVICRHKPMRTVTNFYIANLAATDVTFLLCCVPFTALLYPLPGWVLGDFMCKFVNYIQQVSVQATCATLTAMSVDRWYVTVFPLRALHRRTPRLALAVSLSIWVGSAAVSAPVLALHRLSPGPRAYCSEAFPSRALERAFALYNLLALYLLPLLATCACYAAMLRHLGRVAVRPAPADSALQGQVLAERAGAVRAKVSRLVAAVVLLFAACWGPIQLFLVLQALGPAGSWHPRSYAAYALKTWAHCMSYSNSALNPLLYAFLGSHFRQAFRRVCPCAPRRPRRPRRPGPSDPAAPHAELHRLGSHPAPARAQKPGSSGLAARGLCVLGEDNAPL

intracellular Ca ion level-increasing activity [specific activity to Metastin (1-54)] (relative to Metastin (1-54))	Binder
1.1	B1
0.6	B2
0.6	B3
1.4	B4
0.7	B5
0.9	B6
1.6	B7
1.3	B8
0.5	B9
0.5	B10
0.9	B11
0.7	B12
1.5	B13
1	B14
0.9	B15
0.5	B16
1	B17
0.8	B18
1.4	B19
3.6	B20
